Data taken from paper PMC6468809, “Structural Analysis of the 42 kDa Parvulin of Trypanosoma brucei” (Biomolecules, 2019).
*1 amine or outer side, *2 acyl side, *3 side chain or, on linkers, in order; H or OH if unused. Where no end group is shown, it is not given here. [ ]: non-standard residue; d: D form. pT = C[C@@H](OP(=O)(O)O)[C@H](N)C(=O)O; Suc = O=C(CCC(=O)[*:2])[*:1]

B1: Suc-Ala-pThr-Pro-Ala-NH2 (peptide)
peptide: Suc-A[pT]PA-NH2
SMILES: C[C@H](NC(=O)[C@@H]1CCCN1C(=O)[C@@H](NC(=O)[C@H](C)NC(=O)CCC(=O)O)[C@@H](C)OP(=O)(O)O)C(N)=O
notes: also called phosphorylated model peptide; source: synthetic peptide, bought: CASLO

Assays:
[1] = target: TbPar42 N-terminal extended FHA domain (1-177) (Trypanosoma brucei, UniProt Q57XM6 1-177); assay: NMR titration; unlabelled Ala-Glu-Ala-pThr-Ala-Glu-Xaa peptide added stepwise up to 8 mM to 250 µM 15N-labelled NterFHA; 1H-15N-HSQC, 27 °C; mean KD values; details: both partners purified
[2] = target: T1, TbPar42 PPIase domain (264-383) (T. brucei, succinyl on the N-terminus; phosphothreonine at position 2; C-terminal amide / 15N-labelled, wild type; entity position 1 = Pro264 (offset 263), so checks are His271, Cys333, Leu374; residual GP from); assay: NMR titration; 440 uM 15N-labelled NterFHA or PPIase in 50 mM potassium phosphate, pH 6.26, 90%/10% H2O/D2O; peptide added stepwise to 13 mM; 1H-15N-HSQC or SOFAST spectra, 700 MHz, 27 °C; details: both partners purified
T1 chain: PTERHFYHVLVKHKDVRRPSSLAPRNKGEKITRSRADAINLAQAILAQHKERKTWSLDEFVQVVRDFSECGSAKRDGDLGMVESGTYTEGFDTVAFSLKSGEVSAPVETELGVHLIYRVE

Binder	Kd [1]	Kd [2]
AEA[pT]AED [Ala-Glu-Ala-pThr-Ala-Glu-Asp]	3.4 mM	–
AEA[pT]AEE [Ala-Glu-Ala-pThr-Ala-Glu-Glu]	5.4 mM	–
AEA[pT]AES [Ala-Glu-Ala-pThr-Ala-Glu-Ser]	3.1 mM	–
AEA[pT]AEV [Ala-Glu-Ala-pThr-Ala-Glu-Val]	3.9 mM	–
AEA[pT]AEI [Ala-Glu-Ala-pThr-Ala-Glu-Ile]	4.1 mM	–
B1	–	~10 mM
